Data taken from the supplement of paper PMC9732359.
± gives the uncertainty stated by the source.

experiment: protein stability index of a GFP-peptide fusion (yeast GPS) (PSI 1-4); higher = more stable; sorted into four equal gates, so the index is relative within each strain; details: san1∆
How it was run: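 Tiled 17-residue peptides from yeast proteins were fused downstream of GFP on a plasmid that also expresses Cherry, and the pooled library was carried in yeast. Mid-log cultures grown in leucine-free medium were sorted into four equal gates by GFP/Cherry fluorescence ratio. Plasmids from each gate were PCR-amplified and Illumina-sequenced, and reads were assigned to strains by barcodes. Each peptide's protein stability index is the sum, over gates, of the gate's read frequency multiplied by its gate number.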

Work on MVVQNSPVSSVHTANFS [MED2] yielded a protein stability index of 2.01 ± 0.099.

same assay, conditions: ubr1∆

First: LTMANLPSWSLGKWYSK [ARP7]
Second: LTMHKIIQLILWSIHPS [SRB8]
The protein stability index of the first is higher: 2.85 ± 0.19 for the first, 1.53 ± 0.044 for the second.

LTRNAPLDSKDENFASV [SNF2] and LTVYLEPGHAADQEQAK [RPO21] are within error of each other in protein stability index: 3.1 ± 0.074 for the first, 3.13 ± 0.083 for the second.

First: LVALLSRDLWCFSINDD [SSN2]
Second: LVEEFMLLANISVARKI [DIS3]
The protein stability index of the first is higher: 2.69 ± 0.098 for the first, 2.18 ± 0.055 for the second.

First: LVEYGFDPSRIKDLKQR [SMC2]
Second: LVFQLAKNFSAQKRVVS [SRB8]
The protein stability index of the first is higher: 2.51 ± 0.064 for the first, 1.94 ± 0.058 for the second.

Compared with LVGRKPAEHPFISAARY [RPC37], LVHSEYLINGKRFKRKD [SRP68] is higher in protein stability index: 2.54 ± 0.084 for the first, 2.67 ± 0.038 for the second.

Going from LVQEQVREFQRRLAFLG [BRR2] to LVQLSTMETKTLPEKKQ [SIR4], the protein stability index rises from 1.17 ± 0.087 to 2.99 ± 0.059.

Going from LVRNGPNEHPGAKYVIR [RPO21] to LYAIKKVTLNKETQQYE [BRR2], the protein stability index rises from 2.8 ± 0.084 to 3.36 ± 0.081.

Compared with LYEIILAANYLNIKPLL [SKP1], LYFPDDYPFTQLGYIEN [POP1] is higher in protein stability index: 1.46 ± 0.045 for the first, 3.16 ± 0.068 for the second.

Going from LYGAPGTGKTLLAKAVA [RPT2] to LYGVTICYNKKTEYVLN [REC8], the protein stability index falls from 1.58 ± 0.1 to 1.34 ± 0.062.

LYHLVIMKFQSLSDNDL [ECM29] and LYKEFFNEKFPSLIQEE [NUT1] are within error of each other in protein stability index: 3.28 ± 0.25 for the first, 3.2 ± 0.12 for the second.

Compared with LYLQDSNDKFVHVQLLI [SRB8], LYSIREDYELSPQAVSS [PRE1] is higher in protein stability index: 2.17 ± 0.042 for the first, 2.38 ± 0.069 for the second.

Compared with MAESTTLETIEIHPITF [RRP43], MAFNLLGLLTPEVVELC [FAS2] is lower in protein stability index: 2.68 ± 0.04 for the first, 2.47 ± 0.12 for the second.

MAGLKDVVTREYTINLH [RPL31A] and MAHENVWFSHPRRYGKG [RPS29A] are within error of each other in protein stability index: 3.29 ± 0.16 for the first, 3.18 ± 0.23 for the second.

Going from MAKLNECPLDPGGYFIV [RET1] to MANTGCLSPGAFLSKVP [SRP14], the protein stability index falls from 3.23 ± 0.099 to 2.52 ± 0.061.

First: MASTELSLKRTLTDILE [RPN4]
Second: MDALYEKIWFAISKENL [SIR3]
The protein stability index of the first is higher: 2.02 ± 0.29 for the first, 1.27 ± 0.047 for the second.

First: MDCTKEEEATMTTSAVS [YIL149C/MLP2]
Second: MDFANLWVFQAFTCFCI [SRB8]
The protein stability index of the first is higher: 3.12 ± 0.059 for the first, 1.21 ± 0.042 for the second.

Going from MDPQTLITKANKVSYYG [RTT102] to MDTIQDKLINDVTAIQT [ECM29], the protein stability index rises from 1.87 ± 0.052 to 3.34 ± 0.055.

Going from MEFSNLYKEFFNEKFPS [NUT1] to MEGNAQPVNFNRSWDHA [RPO31], the protein stability index falls from 3.04 ± 0.1 to 2.35 ± 0.067.

First: MEGQKLDDPVLNAIVSK [YJR042W/NUP85]
Second: MELSPTYQTERFTKFSD [YDL116W/NUP84]
The protein stability index of the first is higher: 3.21 ± 0.17 for the first, 2.79 ± 0.22 for the second.

First: MENEFFKVQELLHSKPS [NAS6]
Second: MERLDGDYNNTVYSSEQ [SMC3]
The protein stability index of the first is lower: 2.3 ± 0.085 for the first, 3.16 ± 0.042 for the second.

Going from MFGAKPAGTSLFGNNAG [YGL172W/NUP49] to MGDELTRSHFNALYDTL [RPN6], the protein stability index falls from 3.06 ± 0.053 to 2.74 ± 0.044.

First: MGSLINGITLALIDAGI [SKI6]
Second: MGYSGWCTTCKSAENII [RET1]
The protein stability index of the first is lower: 2 ± 0.051 for the first, 3.19 ± 0.094 for the second.

Going from MIDAVFEQDSHLRYQPD [SNF6] to MIFWNDICQIDTNAPVA [SRB8], the protein stability index falls from 3.19 ± 0.054 to 2.02 ± 0.051.

Compared with MIQPPQQGQNMSEQQWR [ROX3], MIQTPRELLNPRYTYHT [YML031W/NDC1] is higher in protein stability index: 2.19 ± 0.033 for the first, 3.35 ± 0.14 for the second.

Compared with MIRLLGSESDDSEGSIK [ECM29], MISEVPSVAAEYVYFFN [RPC40] is lower in protein stability index: 3.4 ± 0.25 for the first, 1.07 ± 0.079 for the second.

Compared with MKANPALYVLRERIRKG [PRP8], MKATSNTLEEFEHGRTP [FAS2] is higher in protein stability index: 2.41 ± 0.29 for the first, 3.66 ± 0.12 for the second.

Going from MKLNILDERFASRVALN [IRR1] to MKLTDLLSLINSTHLLP [SNF12], the protein stability index rises from 2.03 ± 0.054 to 2.58 ± 0.036.

Compared with MKNPDVEFCGYSIPHPS [RPC19], MKTNVHTQANEPNSAKK [RGR1] is higher in protein stability index: 3.04 ± 0.085 for the first, 3.24 ± 0.11 for the second.

MKTVQSPMGAQPSYNSA [GAL11] and MKYDIFAKFIHHIHHFE [IRR1] are within error of each other in protein stability index: 2.65 ± 0.081 for the first, 2.74 ± 0.05 for the second.

Compared with MLAAQDVAAKCKEVGIT [RPS14A], MLDKLMVTSIRSTPNYI [MED6] is higher in protein stability index: 2.04 ± 0.041 for the first, 2.66 ± 0.05 for the second.

Compared with MLHKVLENKADPLVSLM [RPT6], MLKPNIIFQQLLFWTDP [YCG1] is lower in protein stability index: 2.23 ± 0.066 for the first, 1.68 ± 0.12 for the second.

Compared with MLKRFFPGVKGLVHDLC [SMC1], MLLCVSYFLQERYFDCC [PCI8] is lower in protein stability index: 2.42 ± 0.17 for the first, 1.3 ± 0.092 for the second.

Going from MLMPKEDRNKIHQYLFQ [RPS10A] to MLQISDDNEMTRDDLLT [RRI2], the protein stability index rises from 2.71 ± 0.047 to 3.1 ± 0.056.

First: MLQMKGKLLRNYTQNID [SIR2]
Second: MLSKTKVYYFQGGNNEL [RPL30]
The protein stability index of the first is lower: 2.02 ± 0.058 for the first, 3.4 ± 0.25 for the second.

MMTGAEQDPYSNASQMG [RPB3] and MNIPQRQFSNEEVNRCY [SNF2] are within error of each other in protein stability index: 2.92 ± 0.1 for the first, 3 ± 0.065 for the second.

First: MNLDFDIEEGPITSKSW [MCD1]
Second: MNLKKELQGYIELSVPD [SRB5]
The protein stability index of the first is higher: 3.49 ± 0.18 for the first, 2.83 ± 0.1 for the second.

Going from MPDMNEMMKMMQDPQMQ [SRP54] to MPFNDQGIVPDIIMNPH [RET1], the protein stability index falls from 3.33 ± 0.084 to 3.09 ± 0.042.

Going from MPNSSLQPFYSQPTAAG [DSN1] to MPPKEDWEKYKAPLEDD [RPT1], the protein stability index rises from 2.78 ± 0.064 to 3.27 ± 0.19.

Compared with MPVAPTMEVKSFPILDQ [YMR129W/POM152], MQRQQQGISGSQQNIVP [SNF2] is higher in protein stability index: 1.22 ± 0.093 for the first, 3.01 ± 0.047 for the second.

First: MRNFSKQNQDSKHNERN [YDL088C/ASM4]
Second: MRQQSKELQQLQKQILT [SMC1]
The protein stability index of the first is higher: 3.34 ± 0.093 for the first, 3.17 ± 0.049 for the second.

Going from MSAQKAPKWYPSEDVAA [RPL6A] to MSDTEAPVEVQEDFEVV [RPS5], the protein stability index rises from 2.1 ± 0.071 to 3.09 ± 0.086.

Going from MSETLPRSDDLEATWNF [CDC53] to MSEVITITKRNGAFQNS [RRP4], the protein stability index falls from 2.81 ± 0.15 to 2.18 ± 0.059.

First: MSFSSLYKTFFKRNAVF [QCR9]
Second: MSISLESSKALADSLDR [DIS3]
The protein stability index of the first is lower: 1.32 ± 0.048 for the first, 2.45 ± 0.071 for the second.

First: MSKVMKPSNGKGSRKSS [SNF12]
Second: MSLKDKLLIQIDELSNG [SMC1]
The protein stability index of the first is higher: 3.232 ± 0.029 for the first, 2.52 ± 0.1 for the second.

Going from MSPLECRNILGVTSLIK [RPP1] to MSPNHGTFGGDGMYSES [FAS2], the protein stability index rises from 2.08 ± 0.044 to 2.43 ± 0.064.

First: MSSQISSLIPHCITSIT [MTR3]
Second: MTKTITVAHIQYDFKAV [RPN14]
The protein stability index of the first is lower: 2.47 ± 0.075 for the first, 2.71 ± 0.043 for the second.

Going from MTMASKSLEVVNADTVG [NSL1] to MTMNGIPVKLLNEAQGH [SMD3], the protein stability index rises from 2.38 ± 0.053 to 3.1 ± 0.11.

First: MTRILPQQSRYISFIKD [RPN2]
Second: MTSIGTGYDLSNSVFSP [PRE10]
The protein stability index of the first is lower: 1.92 ± 0.053 for the first, 2.8 ± 0.12 for the second.

MVKLIVMLCTLTGYQNN [YJL039C/NUP192] and MVNVPKTRKTYCKGKTC [RPL42A] are within error of each other in protein stability index: 1.5 ± 0.095 for the first, 1.35 ± 0.075 for the second.

Going from MVTENPQRLTVLRLATN [MCD1] to MVVQNSPVSSVHTANFS [MED2], the protein stability index rises from 2.38 ± 0.051 to 2.75 ± 0.054.
